Tests used:
Test in all cases: holdup assay
Set-up in all cases: key: below the threshold = too weak to quantify, mostly under pKd 3.1 to 4
Conditions in all cases: plain residues with an end cap or a label only (N-terminal biotin on a linker: ado-ado)
[1] = molecular target: GORASP2, Q9H8Y8
[2] = molecular target: T1, HTRA4, P83105
T1 sequence (P83105 378-476, limits assumed, looked up): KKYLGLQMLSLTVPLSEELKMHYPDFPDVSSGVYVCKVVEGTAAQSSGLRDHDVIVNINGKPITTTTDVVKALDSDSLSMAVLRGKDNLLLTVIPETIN

[3] = molecular target: PARD3_3, Q8TEW0
Chain of PARD3_3, Q8TEW0 (Q8TEW0 582-685): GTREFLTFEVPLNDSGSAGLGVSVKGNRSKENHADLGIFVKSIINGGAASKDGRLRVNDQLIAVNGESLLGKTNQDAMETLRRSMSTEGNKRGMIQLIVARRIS

[4] = molecular target: T2, GRIP1_4, Q9Y3R0
T2 sequence (Q9Y3R0 467-571, limits assumed, looked up): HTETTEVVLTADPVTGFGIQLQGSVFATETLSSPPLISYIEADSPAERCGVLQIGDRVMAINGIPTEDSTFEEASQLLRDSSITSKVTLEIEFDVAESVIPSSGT

[5] = molecular target: T3, SNTB1, Q13884
T3 sequence (Q13884 107-205, limits assumed, looked up): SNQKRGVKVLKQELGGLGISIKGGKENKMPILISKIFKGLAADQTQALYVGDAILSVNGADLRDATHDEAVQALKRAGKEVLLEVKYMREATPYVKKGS

[6] = molecular target: DLG2_3, Q15700
[7] = molecular target: T4, RAPGEF6, Q8TEU7
T4 sequence (Q8TEU7 525-625, limits assumed, looked up): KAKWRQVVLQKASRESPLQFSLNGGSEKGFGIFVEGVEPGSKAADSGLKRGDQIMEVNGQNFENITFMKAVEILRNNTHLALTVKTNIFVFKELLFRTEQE

[8] = molecular target: MAST1, Q9Y2H9
Chain of MAST1, Q9Y2H9 (Q9Y2H9 962-1065): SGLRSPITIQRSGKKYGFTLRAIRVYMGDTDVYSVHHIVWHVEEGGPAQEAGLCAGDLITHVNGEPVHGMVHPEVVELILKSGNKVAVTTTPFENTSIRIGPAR

[9] = molecular target: T5, APBA1_2, Q02410
T5 sequence (Q02410 742-832, limits assumed, looked up): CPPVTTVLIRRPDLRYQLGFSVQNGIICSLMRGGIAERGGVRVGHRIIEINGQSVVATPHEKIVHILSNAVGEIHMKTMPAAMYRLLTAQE

[10] = molecular target: GRASP, Q7Z6J2
Chain of GRASP, Q7Z6J2 (Q7Z6J2 96-193): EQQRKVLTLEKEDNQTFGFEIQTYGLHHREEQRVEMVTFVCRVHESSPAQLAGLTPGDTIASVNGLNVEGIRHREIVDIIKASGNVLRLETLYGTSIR

[11] = molecular target: GRIP2_6, Q9C0E4
Chain of GRIP2_6, Q9C0E4 (Q9C0E4 648-740): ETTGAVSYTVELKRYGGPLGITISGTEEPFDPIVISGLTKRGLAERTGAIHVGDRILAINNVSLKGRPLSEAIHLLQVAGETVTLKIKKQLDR

[12] = molecular target: Inadl_6, Q8NI35
Chain of Inadl_6, Q8NI35 (Q8NI35 1058-1167): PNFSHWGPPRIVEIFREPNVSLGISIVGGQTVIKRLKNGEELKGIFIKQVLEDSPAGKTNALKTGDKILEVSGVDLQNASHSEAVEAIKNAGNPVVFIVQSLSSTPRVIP

[13] = molecular target: DLG1_1, Q12959
[14] = molecular target: LAP2, Q96RT1
Chain of LAP2, Q96RT1 (Q96RT1 other isoform, or with tags, fused parts or gaps): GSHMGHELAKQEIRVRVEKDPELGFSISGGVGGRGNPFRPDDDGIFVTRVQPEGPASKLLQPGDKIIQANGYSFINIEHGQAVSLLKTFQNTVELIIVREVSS

[15] = molecular target: T6, NHERF3_3, Q5T2W1
T6 sequence (Q5T2W1 238-333, limits assumed, looked up): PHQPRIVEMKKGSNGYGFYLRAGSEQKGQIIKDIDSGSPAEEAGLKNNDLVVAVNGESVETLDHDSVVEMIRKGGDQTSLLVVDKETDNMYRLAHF

[16] = molecular target: LDB3, O75112
Chain of LDB3, O75112 (O75112 1-94): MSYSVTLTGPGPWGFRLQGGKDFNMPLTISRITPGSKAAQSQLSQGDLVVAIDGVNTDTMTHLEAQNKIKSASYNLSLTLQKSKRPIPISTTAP

[17] = molecular target: DLG4_1, P78352
Chain of DLG4_1, P78352 (P78352 62-152): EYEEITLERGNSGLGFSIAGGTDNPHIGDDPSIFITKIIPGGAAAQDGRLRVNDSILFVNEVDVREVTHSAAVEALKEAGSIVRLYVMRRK

[18] = molecular target: T7, LIN7B, Q9HAP6
T7 sequence (Q9HAP6 88-185, limits assumed, looked up): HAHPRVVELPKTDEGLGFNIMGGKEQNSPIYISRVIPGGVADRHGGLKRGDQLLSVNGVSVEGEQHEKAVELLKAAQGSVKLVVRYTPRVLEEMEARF

[19] = molecular target: T8, APBA2_2, Q99767
T8 sequence (Q99767 654-744, limits assumed, looked up): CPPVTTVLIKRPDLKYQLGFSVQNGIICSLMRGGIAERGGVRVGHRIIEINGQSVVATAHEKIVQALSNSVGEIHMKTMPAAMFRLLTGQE

[20] = molecular target: T9, NHERF3_1, Q5T2W1
T9 sequence (Q5T2W1 4-100, limits assumed, looked up): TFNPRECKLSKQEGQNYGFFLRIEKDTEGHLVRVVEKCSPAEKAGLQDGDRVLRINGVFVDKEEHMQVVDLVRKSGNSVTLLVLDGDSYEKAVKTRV

[21] = molecular target: T10, APBA1_1, Q02410
T10 sequence (Q02410 651-752, limits assumed, looked up): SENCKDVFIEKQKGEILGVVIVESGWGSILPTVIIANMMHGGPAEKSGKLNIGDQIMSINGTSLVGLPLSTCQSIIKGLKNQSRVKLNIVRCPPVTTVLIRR

[22] = molecular target: GOPC, Q9HD26
[23] = molecular target: T11, FRMPD1, Q5SYB0
T11 sequence (Q5SYB0 52-145, limits assumed, looked up): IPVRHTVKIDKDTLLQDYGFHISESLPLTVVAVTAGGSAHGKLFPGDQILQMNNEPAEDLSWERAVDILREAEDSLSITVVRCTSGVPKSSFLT

[24] = molecular target: FRMPD3, Q5JV73
Chain of FRMPD3, Q5JV73 (Q5JV73 12-100): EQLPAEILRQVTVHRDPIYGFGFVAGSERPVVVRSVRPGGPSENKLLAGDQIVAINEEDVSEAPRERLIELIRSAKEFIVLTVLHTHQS

[25] = molecular target: T12, GRIP1_5, Q9Y3R0
T12 sequence (Q9Y3R0 568-668, limits assumed, looked up): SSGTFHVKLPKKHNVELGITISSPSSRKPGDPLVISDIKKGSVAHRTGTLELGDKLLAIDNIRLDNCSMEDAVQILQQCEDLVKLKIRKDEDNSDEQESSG

[26] = molecular target: MAGI2_2, Q86UL8
Chain of MAGI2_2, Q86UL8 (Q86UL8 410-522): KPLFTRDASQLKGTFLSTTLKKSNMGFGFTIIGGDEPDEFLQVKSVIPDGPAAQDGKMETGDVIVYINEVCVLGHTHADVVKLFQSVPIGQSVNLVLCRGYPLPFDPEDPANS

For RELVMRVTTV [MARCHF4, Q9P2E8], the pKd [1] was 5.54, the pKd [2] was 4.74 and the pKd [3] was “below the threshold”. The pKd [4] was “below the threshold”, the pKd [5] was 5.11 and the pKd [6] was 4.93. The pKd [7] was “below the threshold”, the pKd [8] was 4.61 and the pKd [9] was 3.65. The pKd [10] was 4.63, the pKd [11] was “below the threshold” and the pKd [12] was 3.95. The pKd [13] was 5.19, the pKd [14] was 3.79 and the pKd [15] was “below the threshold”. The pKd [16] was “below the threshold”, the pKd [17] was 5.03 and the pKd [18] was 4.2. For the same binder, the pKd [19] was “below the threshold”, the pKd [20] was “below the threshold” and the pKd [21] was “below the threshold”. The pKd [22] was 5.03, the pKd [23] was “below the threshold” and the pKd [24] was “below the threshold”. The pKd [25] was “below the threshold” and the pKd [26] was 5.12.

For LEPAVRSSEL [SH2D3C, Q8N5H7], the pKd [1] was “below the threshold”, the pKd [2] was 3.85 and the pKd [3] was “below the threshold”. For the same binder, the pKd [4] was “below the threshold”, the pKd [5] was 4.11 and the pKd [6] was “below the threshold”. The pKd [7] was “below the threshold”, the pKd [8] was 4.49 and the pKd [9] was “below the threshold”. The pKd [10] was 4.43, the pKd [11] was “below the threshold” and the pKd [12] was “below the threshold”. The pKd [13] was “below the threshold”, the pKd [14] was “below the threshold” and the pKd [15] was “below the threshold”. For the same binder, the pKd [16] was “below the threshold”, the pKd [17] was “below the threshold” and the pKd [18] was “below the threshold”. The pKd [19] was “below the threshold”, the pKd [20] was 5.33 and the pKd [21] was “below the threshold”. For the same binder, the pKd [22] was “below the threshold”, the pKd [23] was “below the threshold” and the pKd [24] was “below the threshold”. The pKd [25] was “below the threshold” and the pKd [26] was “below the threshold”.

For QFTLRHWLKV [SLC6A3, Q01959], the pKd [1] was 4.56, the pKd [2] was 4.1 and the pKd [3] was “below the threshold”. The pKd [4] was “below the threshold”, the pKd [5] was “below the threshold” and the pKd [6] was “below the threshold”. For the same binder, the pKd [7] was “below the threshold”, the pKd [8] was 4.24 and the pKd [9] was “below the threshold”. The pKd [10] was 3.8, the pKd [11] was 3.9 and the pKd [12] was “below the threshold”. For the same binder, the pKd [13] was “below the threshold”, the pKd [14] was “below the threshold” and the pKd [15] was “below the threshold”. The pKd [16] was “below the threshold”, the pKd [17] was “below the threshold” and the pKd [18] was “below the threshold”. For the same binder, the pKd [19] was “below the threshold”, the pKd [20] was 3.77 and the pKd [21] was “below the threshold”. The pKd [22] was 3.51, the pKd [23] was 3.57 and the pKd [24] was “below the threshold”. For the same binder, the pKd [25] was “below the threshold” and the pKd [26] was 3.68.

For PASAKGPLGV [CLDN19, Q8N6F1], the pKd [1] was “below the threshold”, the pKd [2] was “below the threshold” and the pKd [3] was “below the threshold”. For the same binder, the pKd [4] was “below the threshold”, the pKd [5] was “below the threshold” and the pKd [6] was “below the threshold”. For the same binder, the pKd [7] was “below the threshold”, the pKd [8] was 3.69 and the pKd [9] was “below the threshold”. The pKd [10] was “below the threshold”, the pKd [11] was “below the threshold” and the pKd [12] was “below the threshold”. For the same binder, the pKd [13] was “below the threshold”, the pKd [14] was “below the threshold” and the pKd [15] was “below the threshold”. For the same binder, the pKd [16] was “below the threshold”, the pKd [17] was “below the threshold” and the pKd [18] was “below the threshold”. For the same binder, the pKd [19] was “below the threshold”, the pKd [20] was “below the threshold” and the pKd [21] was “below the threshold”. For the same binder, the pKd [22] was “below the threshold”, the pKd [23] was “below the threshold” and the pKd [24] was “below the threshold”. For the same binder, the pKd [25] was “below the threshold” and the pKd [26] was “below the threshold”.

For DQPLEKSTKL [AKAP10, O43572], the pKd [1] was “below the threshold”, the pKd [2] was “below the threshold” and the pKd [3] was “below the threshold”. The pKd [4] was “below the threshold”, the pKd [5] was 3.99 and the pKd [6] was 3.83. For the same binder, the pKd [7] was “below the threshold”, the pKd [8] was 4.55 and the pKd [9] was “below the threshold”. The pKd [10] was 4.06, the pKd [11] was “below the threshold” and the pKd [12] was “below the threshold”. For the same binder, the pKd [13] was “below the threshold”, the pKd [14] was “below the threshold” and the pKd [15] was 4.79. For the same binder, the pKd [16] was “below the threshold”, the pKd [17] was “below the threshold” and the pKd [18] was “below the threshold”. For the same binder, the pKd [19] was “below the threshold”, the pKd [20] was 6.02 and the pKd [21] was “below the threshold”. For the same binder, the pKd [22] was 3.86, the pKd [23] was “below the threshold” and the pKd [24] was “below the threshold”. The pKd [25] was “below the threshold” and the pKd [26] was “below the threshold”.
